Laboratory results from patent US20250346660A1 (PARAGON THERAPEUTICS, published 2025).
Numbering of substitutions follows the chain as printed.

T1: Recombinant Human IL-23 (human, UniProt Q9NPF7 20-189; P29460 23-328)
T1 construct: Recombinant soluble cytokine; also called hIL-23
T1 sequence (looked up) 1: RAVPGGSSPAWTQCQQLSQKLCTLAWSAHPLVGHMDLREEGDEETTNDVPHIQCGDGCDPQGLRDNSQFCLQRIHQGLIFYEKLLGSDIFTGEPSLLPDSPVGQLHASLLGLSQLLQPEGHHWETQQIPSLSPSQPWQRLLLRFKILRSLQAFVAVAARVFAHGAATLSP
T1 sequence (looked up) 2: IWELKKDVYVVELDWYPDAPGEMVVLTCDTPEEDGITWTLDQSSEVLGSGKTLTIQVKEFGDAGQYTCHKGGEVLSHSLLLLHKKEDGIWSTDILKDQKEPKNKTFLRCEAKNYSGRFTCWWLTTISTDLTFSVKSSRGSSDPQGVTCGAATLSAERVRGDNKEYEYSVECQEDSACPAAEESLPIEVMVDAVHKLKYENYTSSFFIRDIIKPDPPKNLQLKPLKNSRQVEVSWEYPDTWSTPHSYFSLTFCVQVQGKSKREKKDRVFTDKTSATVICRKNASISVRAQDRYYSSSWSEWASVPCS

B1: IL-23 antibody clone 202 (antibody, human IgG1, kappa, L234A L235A, V domains shown)
VH: EVQLLESGGGLVQPGGSLRLSCAASGYTFTDQTIHWVRQAPGKGLEWIGYIYPRDDSPKYNENFKGRATLSADKSKNTAYLQMNSLRAEDTAVYYCAIPDRSGYAWFIYWGQGTTVTVSS
VL: EIVMTQSPATLSVSPGERATLSCKASRDVAIAVAWYQQKPGQAPRLLLYWASTRHTGIPARFSGSGSRTEFTLTISSLQSEDFAVYYCHQYSSYPFTFGGGTKVEIKR
notes: Full antibody format
B2: IL-23 antibody clone 203 (antibody, human IgG1, kappa, L234A L235A, V domains shown)
VH: B1 VH
VL: B1 VL with Y49F
notes: Full antibody format
B3: Reference Antibody 1 (antibody, human IgG1, kappa, L234A L235A, V domains shown)
VH: QVQLVQSGAEVKKPGSSVKVSCKASGYTFTDQTIHWMRQAPGQGLEWIGYIYPRDDSPKYNENFKGKVTITADKSTSTAYMELSSLRSEDTAVYYCAIPDRSGYAWFIYWGQGTLVTVSS
VL: DIQMTQSPSSLSASVGDRVTITCKASRDVAIAVAWYQQKPGKVPKLLIYWASTRHTGVPSRFSGSGSRTDFTLTISSLQPEDVADYFCHQYSSYPFTFGSGTKLEIKR
notes: also called anti-human IL-23p19 antibody; parental antibody
B4: IL-23 antibody clone 107 (antibody, human IgG1, kappa, L234A L235A, V domains shown)
VH: B3 VH with D31A, S57T, E62P, I108D
VL: B3 VL

Columns and labels:
Recombinant Human IL-23 [1] = target: T1, Recombinant Human IL-23; assay: SPR (Biacore 8K), mAb captured on anti-human IgG, human IL-23 as analyte, 25 C, 1:1 model
Description: (§1) Reference Antibody 1 was used as a comparator. […] Anti-IL23 mAb constructs (diluted to 2 μg/mL) were captured onto flow cell 2 (active) for 60 sec at a flow rate of 10 μL/min. Recombinant Human IL-23 was prepared at concentrations of 0, 1.23, 3.7, 11.11, 33.33, 100 nM and injected over flow cell 1 (reference) and flow cell 2 (active) for 180 sec at a flow rate of 50 μL/min. Samples were injected in a multi-cycle manner over freshly captured mAb, by regenerating the capture surfaces with injection of 10 mM glycine, pH 1.5 for 30 sec at a flow rate of 30 μL/min. A 1:1 kinetic binding model was utilized to determine the apparent association (kₐ) and dissociation […] rate constants. Their ratio provides the apparent equilibrium dissociation constant or affinity constant ([…]).

Recombinant Human IL-23 [2] = target: T1, Recombinant Human IL-23; assay: cell-based or functional assay
Recombinant Human IL-23 [3] = target: T1, Recombinant Human IL-23; assay: SPR (Biacore 8K), mAb captured on anti-human IgG, human IL-23 as analyte, 25 C, 1:1 model; below the limit of detection
Description: as §1

Recombinant Human IL-23 [4] = target: T1, Recombinant Human IL-23; assay: cell-based or functional assay; remark: listed apart in the source
Recombinant Human IL-23 [5] = target: T1, Recombinant Human IL-23; assay: SPR (Biacore 8K), mAb captured on goat anti-human IgG CM5 chip, human IL-23 as analyte, 25 C, 1:1 model
Description: as §1

Recombinant Human IL-23 [6] = target: T1, Recombinant Human IL-23; assay: cell-based or functional assay; remark: listed apart in the source

Binder | kon (Recombinant Human IL-23 [1]) [M⁻¹ s⁻¹] | Relative IC50, inhibition of IL-23-induced activation of STAT3 (luciferase reporter, HEK 293F IL-23R+/IL-12Rb1+ cells) (Recombinant Human IL-23 [2]) | koff (Recombinant Human IL-23 [3]) [s⁻¹] | Relative IC50, inhibition of IL-23-induced release of IL-17 from human PBMCs (Recombinant Human IL-23 [4]) | Kd (Recombinant Human IL-23 [5]) [pM] | Relative IC50, inhibition of IL-23-induced phosphorylation of STAT3 in DB cells (pSTAT3 sandwich ELISA) (Recombinant Human IL-23 [6])
B1 | 210000 | 0.76 relative to Reference Antibody 1 | < 1e-06 | 0.79 relative to Reference Antibody 1 | – | –
B2 | 271000 | 0.66 relative to Reference Antibody 1 | < 1e-06 | 0.78 relative to Reference Antibody 1 | < 6 | –
B3 | 167000 | 1 relative to Reference Antibody 1 | < 1e-06 | 1 relative to Reference Antibody 1 | – | 1 relative to Reference Antibody 1
B4 | 187000 | 0.57 relative to Reference Antibody 1 | < 1e-06 | 0.67 relative to Reference Antibody 1 | – | 0.51 relative to Reference Antibody 1
